Results published in CN113480658A (SHENZHEN INNOVA NANOBODI CO LTD, dated 2021).

Assays:
人附睾蛋白(HE4) [1] = target: T1, 人附睾蛋白(HE4) (human, UniProt Q14508 31-124); assay: additive ELISA on HE4, 1G8 alone
T1 construct: also called HE4抗原; 抗原
T1 sequence (looked up): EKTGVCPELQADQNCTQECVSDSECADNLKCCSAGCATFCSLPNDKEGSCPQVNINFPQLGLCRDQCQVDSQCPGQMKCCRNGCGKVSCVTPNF

人附睾蛋白(HE4) [2] = target: T1, 人附睾蛋白(HE4); assay: additive ELISA on HE4, 1D9 alone
人附睾蛋白(HE4) [3] = target: T1, 人附睾蛋白(HE4); assay: SPR, Biacore T100, 1:1 binding fit

B1: 纳米抗体1G8 (VHH)
VHH: QVQLQESGGGLAQTGGSLRLSCVASGRTLDRYAIGWFRQAPGKEREFVAAISMSGTMTDYTDSVKGRFTISRDNAKNTVYLQMNSLKPDDTAVYCCAAGGRRGWGRALFAYDYWGQGTQVTVSS
人附睾蛋白(HE4) [1]
  ELISA reading (2nd抗体): 0.481

B2: 纳米抗体1D9 (抗HE4单价纳米抗体) (VHH)
VHH: QVQLQESGGGLVQPGGSLRLSCAASGPRFSSYGMGWFRQAPGKEREFVAAISMSGTMTDYTDSVKGRFTISRDNAKNTVYLQMNSLKPDDTAVYCCAAGGRRGWGRALFAYDYWGQGTQVTVSS
notes: CDR1 26-33, CDR2 51-58, CDR3 97-113); Expressed in E. coli from pMES4 and purified
人附睾蛋白(HE4) [2]
  ELISA reading (1st抗体): 0.286
人附睾蛋白(HE4) [3]
  Kd: 11.9 pM

B3: 抗HE4二价纳米抗体1D9-LHC (VHH)
VHH: QVQLQESGGGLVQPGGSLRLSCAASGPRFSSYGMGWFRQAPGKEREFVAAISMSGTMTDYTDSVKGRFTISRDNAKNTVYLQMNSLKPDDTAVYCCAAGGRRGWGRALFAYDYWGQGTQVTVSS
人附睾蛋白(HE4) [3]
  Kd: 6.9 pM
